Assays:
GST-XIAP = target: T1, GST-XIAP (Homo sapiens, UniProt P98170); assay: In vitro GST pull down; assay type: binding; details: recombinant proteins
T1 construct: made in house
Source text: (§1) FIG. 12 illustrates the identification of the proteolytic form of PGAM5 as an XIAP and cIAP1 substrate in vitro. […] Overall, 15 unique peptides from PGAM5 were recovered and account for 43% of the entire protein sequence. (B) An example of LC-MS/MS spectrum from endogenous PGAM5 N-terminal peptide after subtiligase labeling and positive enrichment. A non-natural amino acid, 2-aminobutyric acid (Abu), is a designed tag showing characteristic labeling by subtiligase. (C) PGAM5 is cleaved into a truncated form in cells. Jurkat cells were transiently transfected with C-terminal Myc tagged full length PGAM5 or PGAM5 (Δ2-24). […] (D) N-terminal amino acid sequence alignment of PGAM5(Δ24) and other known evolutionarily conserved IBM sequences. Reaper, Hid, and Grim are Drosophila proteins that bind DIAP1, the Drosophila IAP. Amino acids are colored according to their chemical properties. (E) XIAP binds PGAM5(Δ24) but not the full length PGAM5. Recombinant GST fused XIAP, PGAM5(FL), and PGAM5(Δ24) were used for in vitro GST pull down experiments. (F) PGAM5(Δ24) binds to XIAP and cIAP1 independent of the RING domain. […] The resins were washed and proteins were eluted and analyzed with SDSPAGE and coomassie blue staining. […] The ubiquitination assay was performed in vitro and PGAM5 is detected with an anti-His antibody.

XIAP = XIAP (Homo sapiens, UniProt P98170); assay: In vitro PGAM5 ubiquitination assay with XIAP; assay type: biochemical; details: 50 nM UBE1, 200 nM UbcH5b, 700 nM XIAP, 1.5 μM PGAM5-His6
Source text: as §1, with “antibody. […]” for “antibody.”

HeLa cells = assay: Cell viability by CellTiter-Glo after STS treatment; assay type: cell-based; details: 24 hours after transfection, STS 2 hours
Experimental: FIG. 13 illustrates functional studies of PGAM5 in cells. (A) PGAM5(Δ24) binds XIAP and cIAP1 in vivo. On the left, HEK293 cells were cotransfected with Flag-cIAP1 and PGAM5(FL)-Myc or PGAM5(Δ24)-Myc. Total cell lysates were analyzed by immune-blotting with anti-Flag and anti-Myc antibodies (bottom two panels). Anti-Myc immune-precipitates (IP) were subjected to immunoblot analysis using anti-Myc and anti-Flag antibodies (top two panels). On the right, PGAM5(Δ24)-Myc was transiently expressed in HEK293 cells. 36 hours after transfection, cells were lysed and subjected for Immuno-precipitation with either anti-Myc antibody or an isotype control antibody (mouse IgG). Proteins in the whole cell lysate (bottom three panels) and proteins that bind to the antibody conjugated sepharose beads (top three panels) were assayed with immunoblotting. […] 24 hours after transfection, cell viability was measured by Annexin V staining. […] Error bars represent SEM calculated from triplicate experiments. […] Cell viability is then immediately measured by CellTiter-Glo luminescent assay. […] PGAM5 levels are analyzed with anti-Myc immune-blotting before STS treatment. Error bars represent SEM calculated from triplicate samples.
HeLa cells were plated in 96 well plates and transfected with either empty vector or the PGAM5 construct. […] Luminescent signals were read using a SpectraMax (Molecular Devices) plate reader.

T1 sequence (P98170 whole entry): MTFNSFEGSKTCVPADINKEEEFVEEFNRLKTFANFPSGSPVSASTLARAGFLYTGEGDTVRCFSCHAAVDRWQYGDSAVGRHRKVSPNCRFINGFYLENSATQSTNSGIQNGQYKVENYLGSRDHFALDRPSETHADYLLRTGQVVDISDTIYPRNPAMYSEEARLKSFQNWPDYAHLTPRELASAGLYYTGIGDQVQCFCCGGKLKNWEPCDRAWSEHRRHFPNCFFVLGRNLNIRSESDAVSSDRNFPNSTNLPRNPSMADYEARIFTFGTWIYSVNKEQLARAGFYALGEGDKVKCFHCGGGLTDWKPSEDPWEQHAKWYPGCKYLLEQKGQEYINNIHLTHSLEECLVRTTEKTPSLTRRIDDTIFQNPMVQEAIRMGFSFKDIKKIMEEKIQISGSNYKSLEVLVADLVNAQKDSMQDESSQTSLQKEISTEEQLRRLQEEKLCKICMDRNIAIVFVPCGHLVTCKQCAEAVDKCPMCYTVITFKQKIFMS
XIAP, sequence (P98170 whole entry): as above

ubiquitination by XIAP (XIAP): not the full length protein
B1: Serine/threonine-protein phosphatase PGAM5, mitochondrial: phosphoglycerate mutase family member 5, dimeric protein phosphatase (protein, UniProt Q96HS1 1-289, looked up)
chain: MAFRQALQLAACGLAGGSAAVLFSAVAVGKPRAGGDAEPRPAEPPAWAGGARPGPGVWDPNWDRREPLSLINVRKRNVESGEEELASKLDHYKAKATRHIFLIRHSQYHVDGSLEKDRTLTPLGREQAELTGLRLASLGLKFNKIVHSSMTRAIETTDIISRHLPGVCKVSTDLLREGAPIEPDPPVSHWKPEAVQYYEDGARIEAAFRNYIHRADARQEEDSYEIFICHANVIRYIVCRALQFPPEGWLRLSLNNGSITHLVIRPNGRVALRTLGDTGFMPPDKITRS
modifications: full-length
notes: phosphoglycerate mutase family member 5, dimeric protein phosphatase
binding to XIAP (pull down) (GST-XIAP): not the full length PGAM5 was pulled down
sensitization to apoptosis inducer STS (HeLa cells): sensitized cells to the apoptosis inducer STS

From patent US20150010525A1, “Catalytic Tagging System to Study Macro-Molecular Interactions Using Engineered Ubiquitin Ligase and Ubiquitin-Like Proteins to Facilitate Substrate Identification” (THE REGENTS OF THE UNIVERSITY OF CALIFORNIA, priority 2012, published 2015)
